Results on 14 molecules are retold here after patent publication US20210207126A1 (ADAGENE, published 2021).

In assay [1] the target is T1, Recombinant human CTLA4-Fc (human, UniProt P16410 36-161, limits assumed).
T1 construct: Coated on the ELISA plate at 1 ug/mL; also called its antigen; not shown: Fc part
T1 sequence (looked up): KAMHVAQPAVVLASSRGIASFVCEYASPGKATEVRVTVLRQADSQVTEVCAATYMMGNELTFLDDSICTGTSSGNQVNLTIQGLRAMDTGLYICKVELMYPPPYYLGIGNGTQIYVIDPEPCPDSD
In words: ELISA on plate-coated recombinant human CTLA4-Fc, before protease cleavage, third block of Table 6 (set of FIG. 7C).

The target in assay [2] is T1, Recombinant human CTLA4-Fc. In words: ELISA on plate-coated recombinant human CTLA4-Fc as in Example 3 (FIG. 24A). How it is done:
(§1) Recombinant human CTLA4-Fc was diluted to 1 μg/mL in PBS and coated on a Maxisorp plate at 4° C. overnight. Plates were blocked with PBS supplemented with 3% non-fat milk at 37° C. for 1 hour. After washing, 100 μL of 3-fold serial dilutions of antibodies were added to each well. After incubation at 37° C. for 1 hour, plates were washed four times, and 100 μL HRP conjugated anti-human IgG (Fab specific) (1:6000 dilution) was added to each well. Plates were incubated at 37° C. for 1 hour, washed four times, and then 50 μL TMB substrate solution was added to each well, and the plate was incubated at room temperature. Absorbance at 450 nm was measured after the reactions were stopped with 50 μL H₂SO₄ per well. The EC₅₀ was evaluated by fitting the ELISA data using the asymmetrical sigmoidal (five-parameter logistic equation) model of GraphPad Prism 6 software.
A general note: ELISA stands for enzyme-linked immunosorbent assay.

The target of assay [3] is T1, Recombinant human CTLA4-Fc. In words: ELISA on plate-coated recombinant human CTLA4-Fc, before protease cleavage, data batch 2. The method, then:
as §1

Assay [4] concerns the target T1, Recombinant human CTLA4-Fc. In words: ELISA on plate-coated recombinant human CTLA4-Fc, before protease cleavage, data batch 1. The method, then: as §1
Assay [5] addresses T2, human CD137 displayed on yeast cells (human, UniProt Q07011 24-186, limits assumed).
T2 construct: Yeast cells displaying human CD137 on their surface; also called human CD137 on the cell surface
In words: flow cytometry on yeast cells displaying human CD137, PE anti-human Fc. How it is done: (§2) The masking efficiency was then measured through flow cytometry. Briefly, yeast cells displaying human CD137 on their surface washed twice with PBSA buffer, and 50 μL (1×10\hat{ }6) cells were dispensed into each well of a 96 well plate. Cells were then incubated with 3-fold serial dilutions of antibodies for 1 hour on ice, washed once with PBSA buffer, and then incubated with 100 μL of PE conjugated mouse anti-human Fc (1 μg/ml) for 30 minutes on ice. The cells were then washed once prior to analysis by flow cytometry (Beckman® CytoFlex).
(In flow cytometry, cells or beads pass a laser one at a time.)

Assay [6] addresses T2, human CD137 displayed on yeast cells. Nature of the assay: flow cytometry on yeast cells displaying human CD137, PE anti-human Fc (column head prints EC50 over KD (nM)). How it is done: as §2

B1: TY22563 (antibody, V domains shown)
VH: EVQLVESGGGLVQPGGSLRLSCAASGYSISSGYHWSWIRQAPGKGLEWLARIDWDDDKYYSTSLKSRLTISRDNSKNTLYLQLNSLRAEDTAVYYCARSYVYFDYWGQGTLVTVSS
VL: EVGSYYSAYPACDSHYPYCQSSGRSAGGGGSPLGLAGSGGSDIQLTQSPSSLSASVGDRVTITCRASQSVRGRFLAWYQQKPGKAPKLLIYDASNRATGIPSRFSGSGSGTDFTLTISSLQPEDFATYYCQQSSSWPPTFGQGTKVEIKR
notes: IgG1; derived from B13192 to remove a potential glycosylation site
As to B1, the “masking efficiency (EC50 / EC50 of parental TY21580)” value in assay [1] was 144 fold.

B2: TY22775 (antibody, V domains shown)
VH: EVQLVESGGGLVQPGGSLRLSCAASGYSISSGYHWSWIRQAPGKGLEWLARIDWDDDKYYSTSLKSRLTISRDNSKNTLYLQLNSLRAEDTAVYYCARSYVYFDYWGQGTLVTVSS
VL: EVGHSDCDAFYPYCDSSGRSAGGGGTPLGLAGSGGSDIQLTQSPSSLSASVGDRVTITCRASQSVRGRFLAWYQQKPGKAPKLLIYDASNRATGIPSRFSGSGSGTDFTLTISSLQPEDFATYYCQQSSSWPPTFGQGTKVEIKR
notes: TY22402 with the masking peptide shortened to 16 residues; expressed in mammalian cells; isotype not restated (parent construct IgG1)
With B2, in assay [2], the “masking efficiency (EC50 / EC50 of parental TY21580)” value is 168 fold.

B3: TY22565 (antibody, V domains shown)
VH: EVQLVESGGGLVQPGGSLRLSCAASGYSISSGYHWSWIRQAPGKGLEWLARIDWDDDKYYSTSLKSRLTISRDNSKNTLYLQLNSLRAEDTAVYYCARSYVYFDYWGQGTLVTVSS
VL: EVGSYPQPSSDCVPYYYACAYSGRSAGGGGSPLGLAGSGGSDIQLTQSPSSLSASVGDRVTITCRASQSVRGRFLAWYQQKPGKAPKLLIYDASNRATGIPSRFSGSGSGTDFTLTISSLQPEDFATYYCQQSSSWPPTFGQGTKVEIKR
notes: IgG1; derived from B13197 to remove a potential glycosylation site
B3: the “masking efficiency (EC50 / EC50 of parental TY21580)” value in assay [1] turned out to be 632 fold.

B4: TY22566 (antibody, V domains shown)
VH: EVQLVESGGGLVQPGGSLRLSCAASGYSISSGYHWSWIRQAPGKGLEWLARIDWDDDKYYSTSLKSRLTISRDNSKNTLYLQLNSLRAEDTAVYYCARSYVYFDYWGQGTLVTVSS
VL: EVGSYPNPASDCVPYYYACAYSGRSAGGGGSPLGLAGSGGSDIQLTQSPSSLSASVGDRVTITCRASQSVRGRFLAWYQQKPGKAPKLLIYDASNRATGIPSRFSGSGSGTDFTLTISSLQPEDFATYYCQQSSSWPPTFGQGTKVEIKR
notes: as for B3
On to B4, for which the “masking efficiency (EC50 / EC50 of parental TY21580)” value in assay [1] was determined as 489 fold.

B5: TY22776 (antibody, V domains shown)
VH: EVQLVESGGGLVQPGGSLRLSCAASGYSISSGYHWSWIRQAPGKGLEWLARIDWDDDKYYSTSLKSRLTISRDNSKNTLYLQLNSLRAEDTAVYYCARSYVYFDYWGQGTLVTVSS
VL: EVGSSDCVPYYYACAYSGRSAGGGGTPLGLAGSGGSDIQLTQSPSSLSASVGDRVTITCRASQSVRGRFLAWYQQKPGKAPKLLIYDASNRATGIPSRFSGSGSGTDFTLTISSLQPEDFATYYCQQSSSWPPTFGQGTKVEIKR
notes: TY22404 with the masking peptide shortened to 16 residues; expressed in mammalian cells; isotype not restated (parent construct IgG1)
Regarding B5, the “masking efficiency (EC50 / EC50 of parental TY21580)” value in assay [2] came out at 296 fold.

B6: TY22401 (antibody, V domains shown)
VH: EVQLVESGGGLVQPGGSLRLSCAASGYSISSGYHWSWIRQAPGKGLEWLARIDWDDDKYYSTSLKSRLTISRDNSKNTLYLQLNSLRAEDTAVYYCARSYVYFDYWGQGTLVTVSS
VL: EVGSYNFVADSCPDHPYPCSASGRSAGGGGSPLGLAGSGGSDIQLTQSPSSLSASVGDRVTITCRASQSVRGRFLAWYQQKPGKAPKLLIYDASNRATGIPSRFSGSGSGTDFTLTISSLQPEDFATYYCQQSSSWPPTFGQGTKVEIKR
notes: IgG1 from HEK293F cells; masking and cleavage peptide fused to the N-terminus of the light chain of TY21580; also called masking peptide B13189
For B6, the entries for the “masking efficiency (EC50 / EC50 of parental TY21580)” value in assay [3] and in assay [4] were 48 fold and 110 fold, respectively.

B7: TY22564 (antibody, V domains shown)
VH: EVQLVESGGGLVQPGGSLRLSCAASGYSISSGYHWSWIRQAPGKGLEWLARIDWDDDKYYSTSLKSRLTISRDNSKNTLYLQLNSLRAEDTAVYYCARSYVYFDYWGQGTLVTVSS
VL: EVGSYYSAYPACDSHYPYCNSAGRSAGGGGSPLGLAGSGGSDIQLTQSPSSLSASVGDRVTITCRASQSVRGRFLAWYQQKPGKAPKLLIYDASNRATGIPSRFSGSGSGTDFTLTISSLQPEDFATYYCQQSSSWPPTFGQGTKVEIKR
notes: as for B1
In the case of B7, the “masking efficiency (EC50 / EC50 of parental TY21580)” value in assay [1] was 117 fold.

B8: TY21242 (antibody, V domains shown)
VH: EVQLVESGGGLVQPGGSLRLSCAASGFSLSTGGVGVGWIRQAPGKGLEWLALIDWADDKYYSPSLKSRLTISRDNSKNTLYLQLNSLRAEDTAVYYCARGGSDTVIGDWFAYWGQGTLVTVSS
VL: DIQLTQSPSSLSASVGDRVTITCRASQSIGSYLAWYQQKPGKAPKLLIYDASNLETGVPSRFSGSGSGTDFTLTISSLQPEDFATYYCQQGYYLWTFGQGTKVEIK
notes: also called parental antibody TY21242; parental CD137 antibody
As for B8, the “masking efficiency (against parental TY21242)” value in assay [5] came out at 1 fold. Further, the affinity in assay [6], expressed as Kd, was 0.28 nM.

B9: TY22591 (antibody, V domains shown)
VH: EVQLVESGGGLVQPGGSLRLSCAASGFSLSTGGVGVGWIRQAPGKGLEWLALIDWADDKYYSPSLKSRLTISRDNSKNTLYLQLNSLRAEDTAVYYCARGGSDTVIGDWFAYWGQGTLVTVSS
VL: EVGSYSSTHAHCHHSPANCISSGRSAGGGGSPLGLAGSGGSDIQLTQSPSSLSASVGDRVTITCRASQSIGSYLAWYQQKPGKAPKLLIYDASNLETGVPSRFSGSGSGTDFTLTISSLQPEDFATYYCQQGYYLWTFGQGTKVEIK
notes: Full IgG4 from mammalian cells; peptide fused to the N-terminus of the light chain of TY21242
With B9, the “masking efficiency (against parental TY21242)” value in assay [5] was 38.3 fold. This molecule also returned a dissociation constant (Kd) in assay [6] of 10.8 nM.

B10: TY22598 (antibody, V domains shown)
VH: EVQLVESGGGLVQPGGSLRLSCAASGFSLSTGGVGVGWIRQAPGKGLEWLALIDWADDKYYSPSLKSRLTISRDNSKNTLYLQLNSLRAEDTAVYYCARGGSDTVIGDWFAYWGQGTLVTVSS
VL: EVGSYSNNFASCLWRHRSCADSGRSAGGGGSPLGLAGSGGSDIQLTQSPSSLSASVGDRVTITCRASQSIGSYLAWYQQKPGKAPKLLIYDASNLETGVPSRFSGSGSGTDFTLTISSLQPEDFATYYCQQGYYLWTFGQGTKVEIK
notes: as for B9
Turning to B10, the “masking efficiency (against parental TY21242)” value in assay [5] was found to be 30.5 fold. This molecule also came in with a Kd in assay [6] of 8.61 nM.

B11: TY22596 (antibody, V domains shown)
VH: EVQLVESGGGLVQPGGSLRLSCAASGFSLSTGGVGVGWIRQAPGKGLEWLALIDWADDKYYSPSLKSRLTISRDNSKNTLYLQLNSLRAEDTAVYYCARGGSDTVIGDWFAYWGQGTLVTVSS
VL: EVGSYYHDYDDCRVLPRRCFNSGRSAGGGGSPLGLAGSGGSDIQLTQSPSSLSASVGDRVTITCRASQSIGSYLAWYQQKPGKAPKLLIYDASNLETGVPSRFSGSGSGTDFTLTISSLQPEDFATYYCQQGYYLWTFGQGTKVEIK
notes: as for B9
In the case of B11, in assay [5], the “masking efficiency (against parental TY21242)” value amounted to 20.8 fold. The same molecule had an equilibrium dissociation constant (Kd) in assay [6] of 5.86 nM.

B12: TY22594 (antibody, V domains shown)
VH: EVQLVESGGGLVQPGGSLRLSCAASGFSLSTGGVGVGWIRQAPGKGLEWLALIDWADDKYYSPSLKSRLTISRDNSKNTLYLQLNSLRAEDTAVYYCARGGSDTVIGDWFAYWGQGTLVTVSS
VL: EVGSYDTDYDFCPILRHRCDSSGRSAGGGGSPLGLAGSGGSDIQLTQSPSSLSASVGDRVTITCRASQSIGSYLAWYQQKPGKAPKLLIYDASNLETGVPSRFSGSGSGTDFTLTISSLQPEDFATYYCQQGYYLWTFGQGTKVEIK
notes: as for B9
Turning to B12, in assay [5], the “masking efficiency (against parental TY21242)” value was found to be 83.7 fold. The molecule also yielded a Kd in assay [6] of 23.6 nM.

B13: TY22599 (antibody, V domains shown)
VH: EVQLVESGGGLVQPGGSLRLSCAASGFSLSTGGVGVGWIRQAPGKGLEWLALIDWADDKYYSPSLKSRLTISRDNSKNTLYLQLNSLRAEDTAVYYCARGGSDTVIGDWFAYWGQGTLVTVSS
VL: EVGSYTDNYDYCPRLRRKCYHSGRSAGGGGSPLGLAGSGGSDIQLTQSPSSLSASVGDRVTITCRASQSIGSYLAWYQQKPGKAPKLLIYDASNLETGVPSRFSGSGSGTDFTLTISSLQPEDFATYYCQQGYYLWTFGQGTKVEIK
notes: as for B9
Turning to B13, the “masking efficiency (against parental TY21242)” value in assay [5] turned out to be 348 fold. This molecule also yielded a Kd in assay [6] of 98.1 nM.

B14: TY22595 (antibody, V domains shown)
VH: EVQLVESGGGLVQPGGSLRLSCAASGFSLSTGGVGVGWIRQAPGKGLEWLALIDWADDKYYSPSLKSRLTISRDNSKNTLYLQLNSLRAEDTAVYYCARGGSDTVIGDWFAYWGQGTLVTVSS
VL: EVGSYNDYNYHCKWRPSRCHNSGRSAGGGGSPLGLAGSGGSDIQLTQSPSSLSASVGDRVTITCRASQSIGSYLAWYQQKPGKAPKLLIYDASNLETGVPSRFSGSGSGTDFTLTISSLQPEDFATYYCQQGYYLWTFGQGTKVEIK
notes: as for B9
Take B14: the “masking efficiency (against parental TY21242)” value in assay [5] stood at 379 fold. In addition, in assay [6], the Kd was found to be 107 nM.

What is called Kd is the concentration at which binding is half-saturated. A low value points to a tighter complex.
